How the values were obtained:
[1] = tested on: HCC827 αvβ3-negative human EGFR mutant lung cancer cells; assay: HCC827 xenograft, delay of onset of erlotinib resistance; type: in vivo, nu/nu mice; details: erlotinib alone, oral, 6.25 mg/kg, six times/week
Method: Briefly, HCC827 (5×10^6 tumor cells in 100 μl of PBS) αvβ3-negative human EGFR mutant lung cancer cells were subcutaneously injected to the right flank of female nu/nu mice (Charles River, 088, 8-10 weeks old). Tumors were measured with calipers twice per week. […] Tumors were placed into liquid nitrogen, OCT compound, or 10% formalin.

[2] = target: T1, human FcγRI (Homo sapiens, UniProt P12314); assay: Promega ADCC Reporter Bioassay, FcγRI (FIG. 7); type: cell-based; details: target cells: integrin avβ3-expressing human pancreatic cancer cells; Raji effector line with NFAT-induced luciferase
T1 construct: host or cells: Raji cell line (so in the source), stably expressing the receptor and NFAT-induced luciferase
T1 sequence (P12314 16-374): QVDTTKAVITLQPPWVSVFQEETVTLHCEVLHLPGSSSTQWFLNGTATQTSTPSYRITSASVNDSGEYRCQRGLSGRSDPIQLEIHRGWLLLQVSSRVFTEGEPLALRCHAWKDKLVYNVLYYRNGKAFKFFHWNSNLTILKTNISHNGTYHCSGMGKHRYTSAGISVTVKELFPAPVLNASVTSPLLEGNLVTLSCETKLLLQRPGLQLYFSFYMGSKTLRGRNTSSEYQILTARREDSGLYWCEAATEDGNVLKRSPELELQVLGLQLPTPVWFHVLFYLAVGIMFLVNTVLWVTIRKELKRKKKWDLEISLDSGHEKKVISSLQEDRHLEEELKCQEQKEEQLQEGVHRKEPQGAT
Method: (§1) Integrin avβ3-expressing human pancreatic cancer cells were utilized as “target cells” to assess the ability of anti-avβ3 antibodies to elicit effector cell activation using a Promega ADCC Reporter Bioassay in which “effector cell” activation is evaluated using a Raji cell line stably expressing the human FcγR I or III and NFAT-induced luciferase. Six antibody dilutions were tested per antibody, with FcγR activation shown as fold change relative to treatment with assay buffer containing no antibody.
(§2) Whereas NK cells utilize only FcγRIII/CD16 to engage antibody Fc regions, macrophages can utilize FcγRI/CD64.

[3] = tested on: αvβ3-expressing human lung cancer cells; assay: In vitro ADCC, human NK cells as effector cells (FIG. 10B); type: cell-based; details: increasing E:T
Description: (A) In vitro ADCC for primary human monocyte-derived macrophages as effector cells. (B). In vitro ADCC for human NK cells as effector cells. Graphs show effect of increasing effector-to-target ratio (E:T) on death of αvβ3-expressing human lung cancer cells.
This distinction could produce a therapeutic advantage by achieving matching between the antigen (integrin αvβ3) and the types of effector cells that are particularly enriched in αvβ3-expressing tumors, such as macrophages.

[4] = target: integrin β1 (Homo sapiens, UniProt P05556); assay: In vitro cell adhesion assay on type I collagen (FIG. 8); type: cell-based; parameters: endogenous in cells; details: 2-fold dilutions starting at 5 μg/mL
integrin β1, sequence (P05556 21-798): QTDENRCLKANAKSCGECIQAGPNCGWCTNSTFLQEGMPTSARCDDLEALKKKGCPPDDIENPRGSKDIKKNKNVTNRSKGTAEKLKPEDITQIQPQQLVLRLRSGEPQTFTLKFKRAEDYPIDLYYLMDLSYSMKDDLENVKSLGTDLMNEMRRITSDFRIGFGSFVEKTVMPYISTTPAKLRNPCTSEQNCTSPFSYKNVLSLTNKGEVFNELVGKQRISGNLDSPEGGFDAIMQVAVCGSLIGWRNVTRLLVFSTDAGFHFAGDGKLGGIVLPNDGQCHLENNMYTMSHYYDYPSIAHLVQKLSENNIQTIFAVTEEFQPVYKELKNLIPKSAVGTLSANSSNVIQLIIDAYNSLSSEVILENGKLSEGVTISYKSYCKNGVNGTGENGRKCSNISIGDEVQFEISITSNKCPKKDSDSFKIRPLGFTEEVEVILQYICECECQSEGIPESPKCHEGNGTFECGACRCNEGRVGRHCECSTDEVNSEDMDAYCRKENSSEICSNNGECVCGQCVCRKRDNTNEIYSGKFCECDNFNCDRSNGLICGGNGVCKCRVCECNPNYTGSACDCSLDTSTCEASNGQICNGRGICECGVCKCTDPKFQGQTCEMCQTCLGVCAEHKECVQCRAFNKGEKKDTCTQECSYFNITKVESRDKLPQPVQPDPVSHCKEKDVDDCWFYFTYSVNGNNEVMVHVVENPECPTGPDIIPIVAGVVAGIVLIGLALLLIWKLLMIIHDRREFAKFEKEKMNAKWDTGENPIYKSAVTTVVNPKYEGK
Method: (§3) Antibody affinity is evaluated using an in vitro cell adhesion assay. 48 well tissue culture plates were coated with the integrin avβ3 ligand fibrinogen or the integrin β1 ligand type I collagen, and 2000-10000 cells were added in the presence of each antibody for a range of 2-fold dilutions starting at 5 μg/mL in duplicate. Plates were washed at the endpoint and cells attached to the substrate detected using crystal violet.
(§4) Each antibody was tested for its ability to prevent the adhesion of integrin αvβ3-expressing tumor cells to the αvβ3-mediated adhesion to fibrinogen as well as the β1-integrin mediated adhesion to type I collagen.

[5] = tested on: human FcγRIII; assay: Promega ADCC Reporter Bioassay, FcγRIII (FIG. 7); type: cell-based; details: target cells: integrin avβ3-expressing human pancreatic cancer cells; Raji effector line with NFAT-induced luciferase
Method: as §1, §2

[6] = target: integrin αvβ3 (Homo sapiens, UniProt P05106+P06756); assay: In vitro cell adhesion assay on fibrinogen (FIG. 8); type: cell-based
integrin αvβ3, sequence (P06756 31-889 limits assumed): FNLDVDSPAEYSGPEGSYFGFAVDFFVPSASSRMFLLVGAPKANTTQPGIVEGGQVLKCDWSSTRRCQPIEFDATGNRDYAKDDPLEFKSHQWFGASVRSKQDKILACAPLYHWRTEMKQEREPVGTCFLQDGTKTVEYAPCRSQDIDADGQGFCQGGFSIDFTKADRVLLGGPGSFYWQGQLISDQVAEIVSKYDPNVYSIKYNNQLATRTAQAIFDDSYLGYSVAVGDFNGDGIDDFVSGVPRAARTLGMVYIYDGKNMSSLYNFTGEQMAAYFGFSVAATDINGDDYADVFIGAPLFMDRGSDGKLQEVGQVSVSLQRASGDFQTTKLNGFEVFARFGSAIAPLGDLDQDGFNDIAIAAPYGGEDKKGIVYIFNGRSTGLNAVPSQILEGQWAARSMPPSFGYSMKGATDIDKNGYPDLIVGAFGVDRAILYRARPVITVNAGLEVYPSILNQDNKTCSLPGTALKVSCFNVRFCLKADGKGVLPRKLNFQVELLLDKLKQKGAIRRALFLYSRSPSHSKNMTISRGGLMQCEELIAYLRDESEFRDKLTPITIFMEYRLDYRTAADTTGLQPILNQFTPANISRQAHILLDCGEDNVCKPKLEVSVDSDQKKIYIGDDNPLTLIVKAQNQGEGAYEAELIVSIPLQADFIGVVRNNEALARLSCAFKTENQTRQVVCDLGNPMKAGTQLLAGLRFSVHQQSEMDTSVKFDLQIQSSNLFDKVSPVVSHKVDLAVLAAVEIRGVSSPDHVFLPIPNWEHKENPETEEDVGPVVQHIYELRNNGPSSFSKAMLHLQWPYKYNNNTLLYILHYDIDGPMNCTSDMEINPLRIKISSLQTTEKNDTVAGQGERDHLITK
integrin αvβ3, sequence (P06756 891-1048 limits assumed): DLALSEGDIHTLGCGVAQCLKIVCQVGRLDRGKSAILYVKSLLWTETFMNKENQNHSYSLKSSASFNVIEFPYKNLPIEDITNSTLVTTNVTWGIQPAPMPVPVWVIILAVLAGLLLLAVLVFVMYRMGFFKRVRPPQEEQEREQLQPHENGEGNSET
integrin αvβ3, sequence (P05106 27-788): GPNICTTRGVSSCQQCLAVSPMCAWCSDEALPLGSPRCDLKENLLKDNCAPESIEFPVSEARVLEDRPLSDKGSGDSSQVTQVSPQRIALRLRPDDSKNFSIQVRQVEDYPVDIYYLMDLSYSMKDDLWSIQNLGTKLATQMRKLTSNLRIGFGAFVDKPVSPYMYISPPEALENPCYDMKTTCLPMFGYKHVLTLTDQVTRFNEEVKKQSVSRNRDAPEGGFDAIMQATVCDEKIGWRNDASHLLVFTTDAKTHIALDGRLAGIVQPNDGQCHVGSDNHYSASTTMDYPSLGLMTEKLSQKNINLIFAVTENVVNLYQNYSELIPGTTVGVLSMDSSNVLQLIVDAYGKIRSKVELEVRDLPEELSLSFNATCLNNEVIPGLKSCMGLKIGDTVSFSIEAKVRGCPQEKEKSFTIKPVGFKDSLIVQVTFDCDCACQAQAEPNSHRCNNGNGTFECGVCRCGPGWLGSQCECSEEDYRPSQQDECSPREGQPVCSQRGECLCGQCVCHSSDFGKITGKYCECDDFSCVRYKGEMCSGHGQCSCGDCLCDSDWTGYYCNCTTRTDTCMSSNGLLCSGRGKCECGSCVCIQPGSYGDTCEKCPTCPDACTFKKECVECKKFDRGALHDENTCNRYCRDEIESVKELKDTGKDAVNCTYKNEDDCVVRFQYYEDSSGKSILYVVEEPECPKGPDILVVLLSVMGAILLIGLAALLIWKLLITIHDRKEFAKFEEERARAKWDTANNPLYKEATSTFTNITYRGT
Method: as §3, §4

Row | Molecule | tumor size [1] | FcγRI activation on effector cells [2] | ADCC with human NK cells as effector cells [3] | β1-integrin mediated adhesion to type I collagen [4] | FcγRIII activation on effector cells [5] | αvβ3-mediated adhesion to fibrinogen ([6]; 2-fold dilutions starting at 5 μg/mL) | antibody affinity, shown by ability to block αvβ3-dependent cell adhesion ([6]; comparison of isotype variants)
1 | C#Cc1cccc(Nc2ncnc3cc(OCCOC)c(OCCOC)cc23)c1 [erlotinib] | initial reduction in tumor size, this is followed by an eventual tumor re-growth | – | – | – | – | – | –
2 | hLM609-hIgG1: humanized LM609, hIgG1 isotype (etaracizumab/Vitaxin); heavy chain SEQ ID NO:9, light chain SEQ ID NO:10 [reference compound] | – | lower levels of engagement | engages NK cells | without disrupting β1-mediated adhesion to collagen | can strongly activate FcγRIII | blocked adhesion to fibrinogen | equivalent
